Key:
Human IgM = Human IgM (Homo sapiens, UniProt P01871); assay: IgM binding assay (human IgM)
DNA = assay: Antinuclear antibody (ANA) test; format: binding; design: key to ANA score, relative result: (X)-(XXX) indicates relative results; (XX): (X)-(XXX) indicates relative results; (X)-(XXX) indicates relative results; details: for ANA score / ANA score, relative result: ANA staining at 10 μg/ml; for level of ANA staining: 10 μg/ml, among DVD3751-DVD3760
Protocol: The cloned BWR4 and PA4 antibodies as well as the DVD-Ig proteins were tested for ANA reactivity using the ANA test kit. Briefly, the DVD-Ig proteins and antibodies were diluted to […] in blocking buffer (1% BSA in PBS). The DVD-Ig proteins and antibodies were added to separate wells of an ANA slide at 50 μl/well and incubated in a moist chamber for 2 hours at room temperature (RT). The wells were then washed 3× with PBS. To detect bound antibodies, Alexa Fluor 488 conjugated goat α-human IgG (α-hIgG) was then added at a dilution of 1:1,000 and the slide incubated in a moist chamber for 1 hour. Unbound detecting antibody was removed by immersing the slide in a jar containing PBS and incubating for 10 minutes at RT with gentle rocking. The prior step was repeated 2× and 10 μl of Prolong® Gold Antifade was added to each well and a 24 mm×60 mm #1 cover glass seated on top. The covered slide was incubated overnight at RT and then sealed by applying clear nail polish to the edges. Binding of the DVD-Ig proteins and antibodies to the slides was assessed by fluorescence microscopy.
DVD-Ig proteins DVD3751-DVD3760 were characterized by antinuclear antibody (ANA) staining at 10 μg/ml according to the method of Example 2.4.
ANA: HEp-2 human tissue culture substrate slides were incubated with 5 μg/ml of the anti-DNA-IgG2a or the DVD-Ig™ binding protein for 2 hours at RT. The slides were washed and bound antibodies were detected with Alexa-488 goat anti-human antibody or DyLight 488 goat anti-mouse antibody.

mIgM = biological target: T1, mIgM (Mus musculus, UniProt P01872); assay: IgM binding ELISA (mouse IgM); details: mIgM-coated ELISA; half-log dilution 10 μg/ml-0.01 μg/ml
T1 sequence (P01872 1-454): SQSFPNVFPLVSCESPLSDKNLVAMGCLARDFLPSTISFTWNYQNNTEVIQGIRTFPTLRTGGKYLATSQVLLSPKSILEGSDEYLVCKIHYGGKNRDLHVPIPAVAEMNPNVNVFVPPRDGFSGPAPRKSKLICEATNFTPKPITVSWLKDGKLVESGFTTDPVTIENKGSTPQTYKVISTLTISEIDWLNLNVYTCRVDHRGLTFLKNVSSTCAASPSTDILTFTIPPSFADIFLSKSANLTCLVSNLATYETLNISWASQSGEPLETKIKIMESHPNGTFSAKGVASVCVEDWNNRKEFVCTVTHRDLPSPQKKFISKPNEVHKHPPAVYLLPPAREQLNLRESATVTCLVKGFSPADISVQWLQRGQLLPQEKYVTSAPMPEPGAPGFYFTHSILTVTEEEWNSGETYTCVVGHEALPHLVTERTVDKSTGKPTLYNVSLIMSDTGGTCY
Protocol: Reactivity of the DVD-Ig proteins with mIgM was determined by enzyme-linked immunosorbent assay (ELISA). Briefly, each well of an Ultra Cruz 96 well microtiter plate (Santa Cruz Biotechnology, Dallas, Tex.) was coated with mIgM at a concentration of 1 μg/ml in 100 μl of PBS. The plate was covered in plastic wrap and incubated overnight at 4° C. Each well of the plate was then washed 3× with 300 μl of PBST. After the final wash, 200 μl of blocking buffer (1% BSA in PBS) was added to each well and the plate incubated at RT for 2 hours. The plate was then washed as above. Rows B-H of the microtiter plate were filled with 100 μl of dilution buffer (1% BSA in PBST). The DVD-Ig proteins were then diluted to […] in dilution buffer and 147 μl of a DVD-Ig protein was added in duplicate to row A of a 96 well plate. For a ½ log dilution, 47 μl was transferred from row A to row B. The pipette tips were replaced with clean tips and 47 μl from row B was transferred to row C. The serial transfers were repeated as above until row G. To assess the binding of the secondary detection reagent to the coated IgM, the final transfer 47 μl was only transferred from G1-G10 to H1-H10 and wells H11 and H12 were left containing 100 μl of dilution buffer. To maintain a 100 μl assay volume, 47 μl was removed from wells H1-H10 and G11-G12 and discarded. After the serial dilution was completed, the plate was incubated for 1-2 hours at RT. The plate was washed as above and then 100 μl of horseradish peroxidase conjugated goat α-hIgG Fc specific, diluted 1:3,000 in dilution buffer, was added to each well. The plate was incubated for 1 hour at RT and then washed 4× as above. The plate was developed by adding 100 μl of 3′,3′,5′,5′-Tetramethylbenzidine (TMB) substrate solution to each well and incubating the plate in the dark for 10-15 minutes. The enzymatic reaction was stopped by adding 100 μl of 1M H2SO4 to each well. The plate was read at 450 nm on an EnVision 2102 multilabel reader (Perkin Elmer, Waltham, Mass.).
DVD-Ig proteins DVD3751-DVD3760 were characterized by IgM binding assay at half-log dilution starting at 10 μg/ml-0.01 μg/ml according to the method of Example 2.5.
IgM binding ELISA: Titrations of the DVD-Ig™ proteins (10 μg/ml to 0.01 μg/ml) were added to ELISA plates coated with murine IgM. Bound antibody was detected with biotinylated anti-human IgG and streptavidin-HRP. EC50 were calculated from the titration curve using Prism6.

AM14 TLR9−/− B cells = assay: [3H]thymidine incorporation, BCR/TLR9 stimulation of AM14 TLR9-/- B cells; format: cell-based, mouse; details: at 5 mg/ml; 24 hours, then 6 hours pulse
Excerpt: (§1) The AM14 B cell receptor (BCR) transgenic mouse has been described previously (Sweet et al. (2010) Autoimmun 43(8): 607-18). Briefly, AM14 is a BCR comprising the AM14 heavy chain and the Vk8 light chain that recognizes murine IgG2a (mIgG2a) of the “a” allotype. Between 95-98% of B cells in a mouse positive for the AM14 heavy chain and Vk8 light chain express the AM14 BCR. To generate AM14 B cells that are deficient in TLR9, TLR7 or FcγRIIB, the AM14 and Vk8 genes were bred to the appropriate knock out mice.
(§2) Primary murine B cells were purified by positive selection using BD Imag™ CD45R/B220 magnetic particles (BD Biosciences, San Jose, Calif.). Briefly, B cells were cultured in RPMI containing, pencillin-streptomycin, β-mercaptoethanol, and 5% heat-inactivated fetal calf serum (FCS) in 96 well flat bottom plates at a density of 4×10^5 cells/well. For stimulation through the BCR and TLR9, B cells were treated with a titration of 0.3 μg/ml-0.03 μg/ml of PA4 or 5 μg/ml to 0.15 μg/ml of a DVD-Ig protein (DVD3751, DVD3752, DVD3754, DVD3755, DVD3759 and DVD3760), unless otherwise noted. Cells were also treated with 1 μg/ml 1826, an experimental ligand for TLR9, as a control. After 24 hours, the cells were pulsed for 6 hours with [3H]thymidine (Perkin Elmer, Waltham Mass.). Incorporation of [3H]thymidine was quantified via a liquid scintillation beta counter (Trilux 1450 MicroBeta, PerkinElmer) according to standard methods.
(§3) DVD-Ig proteins DVD3751-DVD3760 were characterized by ^3H incorporation at […] according to the method of Example 2.6.

AM14 WT B cells = assay: [3H]thymidine incorporation, BCR/TLR9 stimulation of AM14 WT B cells; format: cell-based, mouse; design: key to 3H incorporation AM14 WT, relative result: (X)-(XXX) indicates relative results; (XX): (X)-(XXX) indicates relative results; (X)-(XXX) indicates relative results; level of 3H incorporation / 3H incorporation AM14 WT: dose or concentration left out as unconfirmed; details: for 3H incorporation AM14 WT: 24 hours, then 6 hours pulse
Excerpt: as §1, §2, §3

Chain of Human IgM (P01871 1-433 limits assumed): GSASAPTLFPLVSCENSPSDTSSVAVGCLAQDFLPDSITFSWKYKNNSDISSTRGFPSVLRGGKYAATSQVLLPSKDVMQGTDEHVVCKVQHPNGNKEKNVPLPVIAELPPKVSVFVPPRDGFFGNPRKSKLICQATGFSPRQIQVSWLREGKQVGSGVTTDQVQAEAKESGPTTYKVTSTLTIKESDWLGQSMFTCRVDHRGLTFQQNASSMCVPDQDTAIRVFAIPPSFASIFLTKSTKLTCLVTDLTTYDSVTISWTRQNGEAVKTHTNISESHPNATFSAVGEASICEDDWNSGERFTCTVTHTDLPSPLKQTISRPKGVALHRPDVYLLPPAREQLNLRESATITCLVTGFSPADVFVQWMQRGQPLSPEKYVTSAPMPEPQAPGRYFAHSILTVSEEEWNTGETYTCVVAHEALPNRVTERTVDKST
Chain of Human IgM (P01591 23-159 partner): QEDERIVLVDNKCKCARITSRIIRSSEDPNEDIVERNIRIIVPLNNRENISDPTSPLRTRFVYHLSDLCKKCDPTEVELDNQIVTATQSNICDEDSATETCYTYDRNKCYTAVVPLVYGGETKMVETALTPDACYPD

B1: DVD3766: DVD-Ig: VD1 hIgM (HB-57.3), GS linker, VD2 DNA (PA4); heavy SEQ ID NO 76, light 77 (antibody)
heavy: QVQLQQPGAEFVKPGAPVKLSCKASGYPFTTYWVNWMKQRPGRGLEWIGRIDPYDSETLYNQKFKDKATLTVDKSSSTAYIQLSSLTSEDSAVYYCARETYDYPFAYWGQGTLVTVSSGGGGSGGGGSEVQLVESGGGLVKPGGSLKLSCVASGFTFSTYAMSWVRQTPTKRLEWVATISRGGVSTYYPDTVKGRFTISRDNAKNTLYLQMSSLRSEDTAMYYCARPPTIVTTWFAYWGQGTLVTVSS
light: DIVMTQSPSSLAMSVGQKVTMSCKSSQSLLNSSNQKNYLAWYQQKPGQSPELLVYFASTRESGVPDRFIGSGSGTDFTLTISSVQAEDLADYFCQQHYSTPFTFGSETKLEIKRGGSGGGGSGDVVMTQTPLSLPVSLGDQASISCRSSQSLVHSNGNTYLHWYLQKPGQSPKLLIYKVSNRFSGVPDRFSGSGSGTDFTLKISRVEAEDLGAYFCSQSTHVPYTFGGPTRLEIKR
For B1, which “potency in human IgM binding assay” value (Human IgM) is on record?
Its value is “highest potency”.

B2: DVD3751: DVD-Ig: VD1 DNA(PA4), GS linker, VD2 mIgM (B7.6); heavy SEQ ID NO 48, light 49 (antibody)
heavy: EVQLVESGGGLVKPGGSLKLSCVASGFTFSTYAMSWVRQTPTKRLEWVATISRGGVSTYYPDTVKGRFTISRDNAKNTLYLQMSSLRSEDTAMYYCARPPTIVTTWFAYWGQGTLVTVSSGGGGSGGGGSQVQLKESGPGLVKPSLTLSLTCTVSGFSLNGYGVIWVRQPPGKGLEWMGVIWGNGNTNYNSTLKSRLSISRDTSKSQVFLKMNNLQTEDTAMYFCARSENYYSSPGYFAYWGQGTLVTVSS
light: DVVMTQTPLSLPVSLGDQASISCRSSQSLVHSNGNTYLHWYLQKPGQSPKLLIYKVSNRFSGVPDRFSGSGSGTDFTLKISRVEAEDLGAYFCSQSTHVPYTFGGPTRLEIKRGGSGGGGSGNTVMTQSPTSMFISVGDRVTMNCKASQNVGSDVDWYQQKTGQSPKLLISGTSNRYTGVPDRFTGSGSGTDFTLTISNMQAEDLAVYYCLQYNYNPTFGAGTKLELKR
With B2 as the molecule, how does the ANA score (DNA) read?
Its ANA score is 2.

What about the “ANA score, relative result” value (DNA) of the same molecule?
Its value is “(X)”.

And the “IgM Binding EC50” value (mIgM)?
Its value is 0.1909 mg/L.

And the “3H incorporation AM14 TLR9−/−” value (AM14 TLR9−/− B cells)?
The value was “(1184)”.

What about the “3H incorporation AM14 WT, relative result” value (AM14 WT B cells) of the same molecule?
Its value is “(XXX)”.

What about the “3H incorporation AM14 WT” value (AM14 WT B cells) of the same molecule?
Its value is “(35554)”.

And the “level of 3H incorporation” value (AM14 WT B cells; among DVD3751-DVD3760)?
The value was “highest level of ^3H incorporation”.

B3: DVD3752: DVD-Ig: VD1 DNA(PA4), SS linker, VD2 mIgM (B7.6); heavy SEQ ID NO 50, light 51 (antibody)
heavy: EVQLVESGGGLVKPGGSLKLSCVASGFTFSTYAMSWVRQTPTKRLEWVATISRGGVSTYYPDTVKGRFTISRDNAKNTLYLQMSSLRSEDTAMYYCARPPTIVTTWFAYWGQGTLVTVSSASTKGPQVQLKESGPGLVKPSLTLSLTCTVSGFSLNGYGVIWVRQPPGKGLEWMGVIWGNGNTNYNSTLKSRLSISRDTSKSQVFLKMNNLQTEDTAMYFCARSENYYSSPGYFAYWGQGTLVTVSS
light: DVVMTQTPLSLPVSLGDQASISCRSSQSLVHSNGNTYLHWYLQKPGQSPKLLIYKVSNRFSGVPDRFSGSGSGTDFTLKISRVEAEDLGAYFCSQSTHVPYTFGGPTRLEIKRTVAAPNTVMTQSPTSMFISVGDRVTMNCKASQNVGSDVDWYQQKTGQSPKLLISGTSNRYTGVPDRFTGSGSGTDFTLTISNMQAEDLAVYYCLQYNYNPTFGAGTKLELKR
B3 was tested. Which “level of ANA staining” value (DNA) did it give?
Its value is “highest level of staining”.

What about the ANA score (DNA) of the same molecule?
The ANA score was 4.

What about the “ANA score, relative result” value (DNA) of the same molecule?
The value was “(XXX)”.

And the “IgM Binding EC50” value (mIgM)?
Its value is 0.205 mg/L.

And the “3H incorporation AM14 TLR9−/−” value (AM14 TLR9−/− B cells)?
Its value is “(512)”.

What about the “3H incorporation AM14 WT, relative result” value (AM14 WT B cells) of the same molecule?
Its value is “(XX)”.

What about the “3H incorporation AM14 WT” value (AM14 WT B cells) of the same molecule?
The value was “(12682)”.

B4: DVD3755: DVD-Ig: VD1 DNA(PA4), LS linker, VD2 mIgM (B7.6); heavy SEQ ID NO 56, light 57 (antibody)
heavy: EVQLVESGGGLVKPGGSLKLSCVASGFTFSTYAMSWVRQTPTKRLEWVATISRGGVSTYYPDTVKGRFTISRDNAKNTLYLQMSSLRSEDTAMYYCARPPTIVTTWFAYWGQGTLVTVSSASTKGPSVFPLAPQVQLKESGPGLVKPSLTLSLTCTVSGFSLNGYGVIWVRQPPGKGLEWMGVIWGNGNTNYNSTLKSRLSISRDTSKSQVFLKMNNLQTEDTAMYFCARSENYYSSPGYFAYWGQGTLVTVSS
light: B3 light
What does the source list for B4?
level of ANA staining (DNA): highest level of staining; ANA score (DNA): 4.5; ANA score, relative result (DNA): (XXX); IgM Binding EC50 (mIgM): 0.09709 mg/L; 3H incorporation AM14 TLR9−/− (AM14 TLR9−/− B cells): (402); 3H incorporation AM14 WT, relative result (AM14 WT B cells): (X); 3H incorporation AM14 WT (AM14 WT B cells): (8498)
